Target: KNL1 (construct of the BLI titrations with ZWINT)
Assay: BLI
Details: immobilized ligand KNL1, end of association (~500 s), parent read from panel c, read off a plot

response (analyte ZWINT^M1 15.6 nM, parent: est. 0.040) [nm]	response (analyte ZWINT^M1 31.2 nM, parent: est. 0.056) [nm]	response (analyte ZWINT^M1 62.5 nM, parent: est. 0.071) [nm]	response (analyte ZWINT^M1 125 nM, parent: est. 0.10) [nm]	response (analyte ZWINT^M1 250 nM, parent: est. 0.14) [nm]	response (analyte ZWINT^M1 500 nM, parent: est. 0.19) [nm]	response (analyte ZWINT^M1 1,000 nM, parent: est. 0.22) [nm]	response (analyte ZWINT^M2 500 nM, parent: est. 0.19) [nm]	response (analyte ZWINT^M2 1000 nM, parent: est. 0.22) [nm]	Substance
0.025	0.052	0.071	0.1	0.14	0.2	0.19	–	–	ZWINT (from UniProt O95229) C54A; L67A; I110A; L114A
–	–	–	–	–	–	–	0.055	0.11	ZWINT (from UniProt O95229) C54A; S85R; I110A; L114A

Source: paper PMC11189300
